Assay results as given in US20170355771A1 (Biogen, published 2017).

Legend:
[1] = target: T1, GPIIb/IIIa (SEQ ID NOs: 23 and 24) (human, UniProt P08514 32-994; P05106 27-716); experiment: Bio-Layer Interferometry (OctetRed), monovalent format, yeast-purified Fab; apparent dissociation rate Kdis
T1 construct: also called GPIIb/IIIa complex
Method: (§1) BLI was performed on the OctetRed94 instrument, manufactured by ForteBio, according to standard procedures.

[2] = target: T1, GPIIb/IIIa (SEQ ID NOs: 23 and 24); experiment: Bio-Layer Interferometry (OctetRed), monovalent format, yeast-purified Fab; apparent monovalent affinity
Method: as §1

T1 sequence (P08514 32-994 limits assumed, chain 1 of 2): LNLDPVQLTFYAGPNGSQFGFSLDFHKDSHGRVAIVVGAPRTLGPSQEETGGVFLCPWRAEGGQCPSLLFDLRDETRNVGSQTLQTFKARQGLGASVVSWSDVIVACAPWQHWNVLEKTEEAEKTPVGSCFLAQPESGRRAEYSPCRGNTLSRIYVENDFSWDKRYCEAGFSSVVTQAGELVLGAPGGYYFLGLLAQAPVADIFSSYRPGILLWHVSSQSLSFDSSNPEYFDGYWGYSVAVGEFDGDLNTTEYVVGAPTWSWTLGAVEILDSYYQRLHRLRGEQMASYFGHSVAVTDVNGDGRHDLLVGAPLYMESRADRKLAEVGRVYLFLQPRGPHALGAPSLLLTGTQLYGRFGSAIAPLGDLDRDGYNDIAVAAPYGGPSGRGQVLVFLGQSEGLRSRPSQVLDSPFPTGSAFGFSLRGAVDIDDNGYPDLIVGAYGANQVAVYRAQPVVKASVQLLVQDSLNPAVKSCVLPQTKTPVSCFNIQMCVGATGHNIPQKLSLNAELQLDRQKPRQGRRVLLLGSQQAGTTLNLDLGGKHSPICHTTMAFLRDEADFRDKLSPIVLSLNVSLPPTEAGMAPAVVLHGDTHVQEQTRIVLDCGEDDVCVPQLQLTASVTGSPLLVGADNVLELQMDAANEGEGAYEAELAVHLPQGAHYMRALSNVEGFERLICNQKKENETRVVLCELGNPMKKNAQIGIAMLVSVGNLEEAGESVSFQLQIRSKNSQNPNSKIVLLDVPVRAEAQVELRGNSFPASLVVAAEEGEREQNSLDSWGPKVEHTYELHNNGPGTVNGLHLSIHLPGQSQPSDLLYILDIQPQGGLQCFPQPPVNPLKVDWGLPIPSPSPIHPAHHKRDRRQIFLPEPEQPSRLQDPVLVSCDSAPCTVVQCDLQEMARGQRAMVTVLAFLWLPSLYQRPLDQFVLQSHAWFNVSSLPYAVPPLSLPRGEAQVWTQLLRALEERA
T1 sequence (P05106 27-716 limits assumed, chain 2 of 2): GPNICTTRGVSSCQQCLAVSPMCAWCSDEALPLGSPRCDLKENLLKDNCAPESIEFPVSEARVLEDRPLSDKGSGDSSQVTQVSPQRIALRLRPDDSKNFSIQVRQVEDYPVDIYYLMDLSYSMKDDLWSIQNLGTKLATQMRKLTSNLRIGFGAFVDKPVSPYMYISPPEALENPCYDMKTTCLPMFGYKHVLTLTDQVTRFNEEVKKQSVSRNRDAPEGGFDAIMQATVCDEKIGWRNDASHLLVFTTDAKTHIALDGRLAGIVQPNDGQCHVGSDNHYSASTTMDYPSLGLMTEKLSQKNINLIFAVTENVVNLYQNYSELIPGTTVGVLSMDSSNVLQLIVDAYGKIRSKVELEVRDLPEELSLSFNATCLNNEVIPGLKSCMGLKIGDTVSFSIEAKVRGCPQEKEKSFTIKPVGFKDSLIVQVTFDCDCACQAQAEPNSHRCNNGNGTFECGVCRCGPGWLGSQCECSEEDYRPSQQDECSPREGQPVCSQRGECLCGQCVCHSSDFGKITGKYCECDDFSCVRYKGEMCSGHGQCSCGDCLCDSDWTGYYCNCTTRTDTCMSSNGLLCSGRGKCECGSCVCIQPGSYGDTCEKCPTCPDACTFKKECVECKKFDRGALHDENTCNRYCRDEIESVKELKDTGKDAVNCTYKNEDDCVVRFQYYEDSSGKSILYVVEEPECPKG

| koff [1] | Kd [2] | Binder |
| --- | --- | --- |
| 0.00822 s⁻¹ | 29 nM | affinity matured h34D10 Fab VH100/VL0 (Fab, V domains shown, Yeast-expressed, protein A purified, then made into Fab) VH: EVQLVESGGGLVKPGGSLRLSCAASGFTFGAYAMSWVRQAPGKGLVWVASISSGGTTYYPDSVKRQFTISRDNAKNTLYLQMNSLRAEDTAVYYCTRGGDYSYALDYWGQGTLVTVSS VL: EIVMTQSPATLSVSPGERATLSCRASSSVNYMYWYQQKPGQAPRLLIYYTSNLAPGIPARFSGSGSGTEFTLTISSLQSEDFAVYYCQQFSSSPWTFGQGTKVEIK |
| 0.0337 s⁻¹ | 130 nM | affinity matured h34D10 Fab VH110/VL0 (Fab, V domains shown, Yeast-purified Fab) VH: EVQLVESGGGLVKPGGSLRLSCAASGFTFNAYAMSWVRQAPGKGLVWVASISSGGTTYYPDSVKRQFTISRDNAKNTLYLQMNSLRAEDTAVYYCTRGGDYGYALDYWGQGTLVTVSS VL: EIVMTQSPATLSVSPGERATLSCRASSSVNYMYWYQQKPGQAPRLLIYYTSNLAPGIPARFSGSGSGTEFTLTISSLQSEDFAVYYCQQFSSSPWTFGQGTKVEIK |
| 0.0113 s⁻¹ | 31 nM | affinity matured h34D10 Fab VH104/VL0 (Fab, V domains shown, Yeast-purified Fab) VH: EVQLVESGGGLVKPGGSLRLSCAASGFTFSAYAMSWVRQAPGKGLVWVASISSGGTTYYPDSVKRQFTISRDNAKNTLYLQMNSLRAEDTAVYYCTRGGDYSYALDYWGRGTLVTVSS VL: EIVMTQSPATLSVSPGERATLSCRASSSVNYMYWYQQKPGQAPRLLIYYTSNLAPGIPARFSGSGSGTEFTLTISSLQSEDFAVYYCQQFSSSPWTFGQGTKVEIK |
| 0.031 s⁻¹ | 120 nM | affinity matured h34D10 Fab VH109/VL0 (Fab, V domains shown, Yeast-purified Fab) VH: EVQLVESGGGLVKPGGSLRLSCAASGFTFSAYAMSWVRQAPGKGLVWVASISSGGTTDYPDSVKRQFTISRDNAKNTLYLQMNSLRAEDTAVYYCTRGGDYGYALDYWGQGTLVTVSS VL: EIVMTQSPATLSVSPGERATLSCRASSSVNYMYWYQQKPGQAPRLLIYYTSNLAPGIPARFSGSGSGTEFTLTISSLQSEDFAVYYCQQFSSSPWTFGQGTKVEIK |
| 0.0429 s⁻¹ | 120 nM | affinity matured h34D10 Fab VH115/VL0 (Fab, V domains shown, Yeast-purified Fab) VH: GVQLVESGGGLVKPGGSLRLSCAASGFTFSAYAMSWVRQAPGKGLVWVASISSGGTTYYPDSVKRQFTISRDDAKNTLYLQMNSLRAEDTAVYYCTRGGDYGYALDYWGQGTLVTVSS VL: EIVMTQSPATLSVSPGERATLSCRASSSVNYMYWYQQKPGQAPRLLIYYTSNLAPGIPARFSGSGSGTEFTLTISSLQSEDFAVYYCQQFSSSPWTFGQGTKVEIK |
| 0.0432 s⁻¹ | 130 nM | affinity matured h34D10 Fab VH116/VL0 (Fab, V domains shown, Yeast-purified Fab) VH: EVQLVESGGGLVKPGGSLRLSCAASGFTFSAYAMSWVRQAPGKGLVWVASISSGGTTYYPDSVKRQFTISRDDAKNTLYLQMNSLRAEDTAVYYCTRGGDYGYALDYWGQGTLVTVSS VL: EIVMTQSPATLSVSPGERATLSCRASSSVNYMYWYQQKPGQAPRLLIYYTSNLAPGIPARFSGSGSGTEFTLTISSLQSEDFAVYYCQQFSSSPWTFGQGTKVEIK |
| 0.0372 s⁻¹ | 160 nM | affinity matured h34D10 Fab VH113/VL0 (Fab, V domains shown, Yeast-purified Fab) VH: EVQLVESGGGLVKPGGSLRLSCAASGFTFSAYAMSWVRQAPGKGLVWVAGISSGGTTYYPDSVKRQFTISRDNAKNTLYLQMNSLRAEDTAVYYCTRGGDYGYALDYWGQGTLVTVSS VL: EIVMTQSPATLSVSPGERATLSCRASSSVNYMYWYQQKPGQAPRLLIYYTSNLAPGIPARFSGSGSGTEFTLTISSLQSEDFAVYYCQQFSSSPWTFGQGTKVEIK |
| 0.0127 s⁻¹ | 44 nM | affinity matured h34D10 Fab VH106/VL0 (Fab, V domains shown, Yeast-purified Fab) VH: EVQLVECGGGLVKPGGSLRLSCAASGFTFSAYAMSWVRQAPGKGLVWVASISSGGTTYYPDSVKRQFTISRDNAKNTLYLQMNSLRAEDTAVYYCTRGGDYSYALDYWGQGTLVTVSS VL: EIVMTQSPATLSVSPGERATLSCRASSSVNYMYWYQQKPGQAPRLLIYYTSNLAPGIPARFSGSGSGTEFTLTISSLQSEDFAVYYCQQFSSSPWTFGQGTKVEIK |
| 0.0352 s⁻¹ | 160 nM | affinity matured h34D10 Fab VH112/VL0 (Fab, V domains shown, Yeast-purified Fab) VH: EVQLVESGGGLVKPGGSLRLSCAASGFTFSAYAMSWVRQAPGEGLVWVAGISSGGTTYYPDSVKRQFTISRDNAKNTLYLQMNSLRAEDTAVYYCTRGGDYGYALDYWGQGTLVTVSS VL: EIVMTQSPATLSVSPGERATLSCRASSSVNYMYWYQQKPGQAPRLLIYYTSNLAPGIPARFSGSGSGTEFTLTISSLQSEDFAVYYCQQFSSSPWTFGQGTKVEIK |
| 0.0478 s⁻¹ | 200 nM | affinity matured h34D10 Fab VH118/VL0 (Fab, V domains shown, Yeast-purified Fab) VH: GVQLVESGGGLVKPGGSLRLSCAASGFTFSAYAMSWVRQAPGKGLVWVASISSGGTTYYPDSVKRQFTISRDNAKNTLYLQMNSLRAEDTAVYYCTRGGDYGYALDYWGQGALVTVSS VL: EIVMTQSPATLSVSPGERATLSCRASSSVNYMYWYQQKPGQAPRLLIYYTSNLAPGIPARFSGSGSGTEFTLTISSLQSEDFAVYYCQQFSSSPWTFGQGTKVEIK |
| 0.0482 s⁻¹ | 140 nM | affinity matured h34D10 Fab VH119/VL0 (Fab, V domains shown, Yeast-purified Fab) VH: GVQLVESGGGLVKPGGSLRLSCAASGFTFSAYAMSWVRQAPGKGLVWVASISSGGTTYYPDSVKRQFTISRDNAKNTLYLQMNSLRAEDTAVYYCTRGGDYGYALDYWGQGTLVTVSS VL: EIVMTQSPATLSVSPGERATLSCRASSSVNYMYWYQQKPGQAPRLLIYYTSNLAPGIPARFSGSGSGTEFTLTISSLQSEDFAVYYCQQFSSSPWTFGQGTKVEIK |
| 0.0352 s⁻¹ | 150 nM | affinity matured h34D10 Fab VH111/VL0 (Fab, V domains shown, Yeast-purified Fab) VH: EVQLVESGGGLVKPGGSLRLSCAASGFTFNAYAMSWVRQAPGEGLVWVASISSGGTTYYPDSVKRQFTISRDNAKNTLYLQMNSLRAEDTAVYYCTRGGDYGYALDYWGQGTLVTVSS VL: EIVMTQSPATLSVSPGERATLSCRASSSVNYMYWYQQKPGQAPRLLIYYTSNLAPGIPARFSGSGSGTEFTLTISSLQSEDFAVYYCQQFSSSPWTFGQGTKVEIK |
| 0.0103 s⁻¹ | 37 nM | affinity matured h34D10 Fab VH103/VL0 (Fab, V domains shown, Yeast-purified Fab) VH: EVQLVESGGGLVKPGGSLRLSCAASGFTFSAYAMSWVRQAPGKGLVWVASISSGGTTYYPDSVKRQFTISRDNAKNTLYLQVNSLRAEDTAVYYCTRGGDYSYALDYWGQGTLVTVSS VL: EIVMTQSPATLSVSPGERATLSCRASSSVNYMYWYQQKPGQAPRLLIYYTSNLAPGIPARFSGSGSGTEFTLTISSLQSEDFAVYYCQQFSSSPWTFGQGTKVEIK |
| 0.0393 s⁻¹ | 130 nM | affinity matured h34D10 Fab VH114/VL0 (Fab, V domains shown, Yeast-purified Fab) VH: EMQLVESGGGLVKPGGSLRLSCAASGFTFSAYAMSWVRQAPGKGLVWVASISSGGTTYYPDSVKRQFTISRDNAKNTLYLQMNSLRAEDTAVYYCTRGGDYGYALDYWGQGTLVTVSS VL: EIVMTQSPATLSVSPGERATLSCRASSSVNYMYWYQQKPGQAPRLLIYYTSNLAPGIPARFSGSGSGTEFTLTISSLQSEDFAVYYCQQFSSSPWTFGQGTKVEIK |
| 0.0114 s⁻¹ | 42 nM | affinity matured h34D10 Fab VH105/VL0 (Fab, V domains shown, Yeast-purified Fab) VH: EVQLVESGGGLVKPGGSLRLSCAASGFTFSAYAMSWVRQAPGKGLVWVASISSGGTTYYPDSVKRQFTISRDNAKNTLYLQMNSLRAEDTAVYYCTRGGDYSYALDYWGQGTLVTVSS VL: EIVMTQSPATLSVSPGERATLSCRASSSVNYMYWYQQKPGQAPRLLIYYTSNLAPGIPARFSGSGSGTEFTLTISSLQSEDFAVYYCQQFSSSPWTFGQGTKVEIK |
| 0.0142 s⁻¹ | 48 nM | affinity matured h34D10 Fab VH107/VL0 (Fab, V domains shown, Yeast-purified Fab) VH: EVQLVESGGGLVKPGESLRLSCAASGFTFSAYAMSWVRQAPGEGLVWVASISSGGTTYYPDSVKRQFTISRDNAKNTLYLQMNSLRAEDTAVYYCTRGGDYSYALDYWGQGTLVTVSS VL: EIVMTQSPATLSVSPGERATLSCRASSSVNYMYWYQQKPGQAPRLLIYYTSNLAPGIPARFSGSGSGTEFTLTISSLQSEDFAVYYCQQFSSSPWTFGQGTKVEIK |
| 0.0193 s⁻¹ | 49 nM | affinity matured h34D10 Fab VH108/VL0 (Fab, V domains shown, Yeast-purified Fab) VH: EVQLVESGGGLVKPGGSLRLSCAASGFTFSAYAMSWVRQAPGKGLVWVASISSDGTTYYPDSVKRQFTISRDNARNTLYLQMNSLRAEDTAVYYCTRGGDYSYALDYWGQGTLVTVSS VL: EIVMTQSPATLSVSPGERATLSCRASSSVNYMYWYQQKPGQAPRLLIYYTSNLAPGIPARFSGSGSGTEFTLTISSLQSEDFAVYYCQQFSSSPWTFGQGTKVEIK |
| 0.0435 s⁻¹ | 160 nM | affinity matured h34D10 Fab VH117/VL0 (Fab, V domains shown, Yeast-purified Fab) VH: EAQLVESGGGLVKPGGSLRLSCAASGFTFSAYAMSWVRQAPGKGLVWVASISSGGTTYYPDSVKRQFTISRDNAKNTLYLQMNSLRAEDTAVYYCTRGGDYGYALDYWGQGTLVTVSS VL: EIVMTQSPATLSVSPGERATLSCRASSSVNYMYWYQQKPGQAPRLLIYYTSNLAPGIPARFSGSGSGTEFTLTISSLQSEDFAVYYCQQFSSSPWTFGQGTKVEIK |
| 0.00836 s⁻¹ | 25 nM | affinity matured h34D10 Fab VH101/VL0 (Fab, V domains shown, Yeast-purified Fab) VH: EVQLVESGGGLVKPGGSLRLSCAASGFTFSAYAMSWVRQAPGKGLVWVASISSGGTTYYPDSVERQFTISRDNAKNTLYLQMNSLRAEDTAVYYCTRGGDYSYALDYWGQGTLVTVSS VL: EIVMTQSPATLSVSPGERATLSCRASSSVNYMYWYQQKPGQAPRLLIYYTSNLAPGIPARFSGSGSGTEFTLTISSLQSEDFAVYYCQQFSSSPWTFGQGTKVEIK |
| 0.00977 s⁻¹ | 36 nM | affinity matured h34D10 Fab VH102/VL0 (Fab, V domains shown, Yeast-purified Fab) VH: EVQLVESGGGLVKPGGSLRLSCAASGFTFSAYAMSWVRQAPGKGLVWVASISSGGTTYYPDSVKRQFTISRDNAKNTLYLQMNSLRAEDTAVYYCTRGGDYSYALDYWGQGTLVTVSF VL: EIVMTQSPATLSVSPGERATLSCRASSSVNYMYWYQQKPGQAPRLLIYYTSNLAPGIPARFSGSGSGTEFTLTISSLQSEDFAVYYCQQFSSSPWTFGQGTKVEIK |
